By Kd is commonly meant the free concentration of one partner at which half of the binding sites on the other are occupied at equilibrium, for simple one-to-one binding. A higher Kd goes with weaker binding.

The text below walks through data of paper PMC12097070 (Advanced Science, 2025).

What all share (conditions): both partners purified
Assay [1] deals with BSA protein (Bos taurus (Bovine)., UniProt P02769). The experiment in a line: ELISA; Nbs tested on BSA protein (Figure S7); details not shown.
In assay [2] the target is T1, human glucose‐regulated protein 78 (hGRP78), full-length (Homo sapiens (Human)., UniProt P11021).
T1 construct: also called BiP; HSPA5
The assay is described as follows: SPR; Biacore T100; […] (10 µg mL^-1) […]; association 120 s, dissociation 300 s; […]. A general note: SPR reads the build-up and loss of mass on a sensor chip optically.

Assay [3] deals with T2, mouse GRP78 (mGRP78) (Mus musculus (Mouse)., UniProt P20029).
T2 construct: also called murine GRP78
The assay is described as follows: ELISA; hGRP78 or mGRP78 (10 µg mL^-1) immobilised on plates overnight at 4 °C; blocked with 3% BSA/PBS; serially diluted HA‐tagged Nbs 1 h at RT; HRP anti‐HA; OD450. (In general: In an ELISA, binding on a coated surface is turned into a signal by an enzyme label.)

Chain of BSA protein (P02769 25-607): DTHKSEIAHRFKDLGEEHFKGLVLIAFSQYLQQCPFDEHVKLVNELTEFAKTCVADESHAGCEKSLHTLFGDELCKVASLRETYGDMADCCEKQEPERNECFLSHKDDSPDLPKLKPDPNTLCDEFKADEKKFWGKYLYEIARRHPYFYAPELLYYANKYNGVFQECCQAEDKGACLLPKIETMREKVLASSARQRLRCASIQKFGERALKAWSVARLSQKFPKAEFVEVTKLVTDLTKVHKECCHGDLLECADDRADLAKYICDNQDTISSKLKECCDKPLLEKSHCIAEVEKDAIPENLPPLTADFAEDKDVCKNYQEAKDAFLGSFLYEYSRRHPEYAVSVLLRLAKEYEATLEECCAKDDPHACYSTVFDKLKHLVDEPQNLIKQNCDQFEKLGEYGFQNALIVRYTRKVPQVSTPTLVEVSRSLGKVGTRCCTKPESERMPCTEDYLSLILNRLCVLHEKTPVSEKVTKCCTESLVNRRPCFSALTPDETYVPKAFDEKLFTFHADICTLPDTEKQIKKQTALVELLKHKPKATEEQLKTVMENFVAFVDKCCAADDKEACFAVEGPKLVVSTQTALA
T2 sequence (P20029 20-655): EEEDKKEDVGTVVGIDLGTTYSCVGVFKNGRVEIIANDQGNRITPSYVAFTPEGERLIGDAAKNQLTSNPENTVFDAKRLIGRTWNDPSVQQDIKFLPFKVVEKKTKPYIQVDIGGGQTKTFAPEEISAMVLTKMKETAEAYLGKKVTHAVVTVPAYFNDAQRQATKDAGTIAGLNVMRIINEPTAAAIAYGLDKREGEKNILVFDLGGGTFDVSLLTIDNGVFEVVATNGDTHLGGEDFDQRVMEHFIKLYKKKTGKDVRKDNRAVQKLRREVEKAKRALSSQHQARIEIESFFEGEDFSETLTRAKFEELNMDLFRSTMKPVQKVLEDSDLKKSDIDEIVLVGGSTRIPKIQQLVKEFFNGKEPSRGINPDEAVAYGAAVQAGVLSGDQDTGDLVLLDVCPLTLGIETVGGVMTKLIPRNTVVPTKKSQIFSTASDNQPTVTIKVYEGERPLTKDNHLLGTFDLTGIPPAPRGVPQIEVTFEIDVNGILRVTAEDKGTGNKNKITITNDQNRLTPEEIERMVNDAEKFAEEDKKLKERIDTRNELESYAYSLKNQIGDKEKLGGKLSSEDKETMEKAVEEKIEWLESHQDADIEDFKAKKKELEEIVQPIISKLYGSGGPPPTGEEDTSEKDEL
T1 sequence (P11021 19-654): as the sequence (P20029 20-655) above, with F295Y, G620A, S631A counted along it

B1: Nb NBD1 (VHH)
VHH: AVQLVESGGGSVQAGGSLTLSCAASINTGNPALVGWYRQAPGKQREMVAMISISGNTNYAPSVKGRFTISRDNANKTIFLQMNSLTPEDTAVYYCKKLPFGSWGQGTQVTVSS
notes: source: E. coli BL21 (DE3), purified (Ni‐NTA, AKTA Pure System)
Turning to B1, the binding result in assay [1] is reported as “no binding”; in assay [3], “binds”. This molecule displayed a Kd in assay [2] of 3.4 nM.
